Assay results reported in patent US20140105889A1 (published 2014).

Biological target: T1, human FcγRIIIa(F) (human, UniProt P08637 17-208, limits assumed)
T1 construct: also called FcgRIIIaF; FcγRIIIa allotype F158
Assay: SPR (Biacore), antibody captured, FcγR as analyte
Description: Interaction between each modified antibody and Fcγ receptor prepared in the manner described above was analyzed using the Biacore T100 (GE Healthcare), Biacore T200 (GE Healthcare), Biacore A100 or Biacore 4000. HBS-EP+ (GE Healthcare) was used for the running buffer, and measurements were carried out at 25° C. The chips used were chips in which antigen peptides, Protein A (Thermo Scientific), Protein A/G (Thermo Scientific) or Protein L (ACTIGEN or BioVision) were immobilized on the Series S Sensor Chip CM5 (GE Healthcare) or Series S Sensor Chip CM4 (GE Healthcare) by amine coupling, or chips in which preliminarily biotinylated antigen peptides were allowed to interact and then immobilized on the Series S Sensor Chip SA (certified) (GE Healthcare). The target antibodies were captured on these sensor chips, Fcγ receptor diluted with the running buffer was allowed to interact, followed by measurement of the amount of bound antibody. The amounts bound were compared between antibodies. However, since the amount of Fcγ receptor bound depends on the amount of captured antibody, the values used for comparison were first corrected by dividing the amount of Fcγ receptor bound by the captured amount of each antibody. Through reaction with 10 mM glycine-HCl at pH 1.5, the sensor chips were regenerated by washing off antibody captured on the sensor chips and used repeatedly.
Binding strength was evaluated according to the following method based on the results of analyzing the interaction with each FcγR. […] That value was then further multiplied by 100, and the resulting value was used as an indicator of relative binding activity to each FcγR.

T1 sequence (P08637 other isoform, or with tags, fused parts or gaps limits assumed): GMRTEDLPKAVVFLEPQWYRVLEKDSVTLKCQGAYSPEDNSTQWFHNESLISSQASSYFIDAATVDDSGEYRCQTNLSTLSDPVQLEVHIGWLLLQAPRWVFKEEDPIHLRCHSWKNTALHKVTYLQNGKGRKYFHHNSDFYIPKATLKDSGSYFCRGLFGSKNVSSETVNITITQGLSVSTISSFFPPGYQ

Row | Binder | relative binding activity (amount bound / amount bound by GpH7-B3/GpL16-k0 x100)
1 | GpH7-B3 S298G / GpL16-k0 (antibody, human IgG1, B3 variant: anti-glypican-3 IgG1 (constant region B3 = G1d with K439E) with one substitution, EU numbering; also called B3 variant S298G; copies: 2 + 2) heavy: not shown light: DIVMTQSPLSLPVTPGEPASISCQASESLVHSNRNTYLHWYLQKPGQSPQLLIYKVSNRFSGVPDRFSGSGSGTDFTLKISRVEAEDVGVYYCSQNTHVPPTFGQGTKVEIE | 59 % of GpH7-B3/GpL16-k0
2 | GpH7-B3 D270M / GpL16-k0 (antibody, human IgG1, B3 variant: anti-glypican-3 IgG1 (constant region B3 = G1d with K439E) with one substitution, EU numbering; also called B3 variant D270M; copies: 2 + 2) heavy: not shown light: DIVMTQSPLSLPVTPGEPASISCQASESLVHSNRNTYLHWYLQKPGQSPQLLIYKVSNRFSGVPDRFSGSGSGTDFTLKISRVEAEDVGVYYCSQNTHVPPTFGQGTKVEIE | 29 % of GpH7-B3/GpL16-k0
3 | GpH7-B3 S298K / GpL16-k0 (antibody, human IgG1, B3 variant: anti-glypican-3 IgG1 (constant region B3 = G1d with K439E) with one substitution, EU numbering; also called B3 variant S298K; copies: 2 + 2) heavy: not shown light: DIVMTQSPLSLPVTPGEPASISCQASESLVHSNRNTYLHWYLQKPGQSPQLLIYKVSNRFSGVPDRFSGSGSGTDFTLKISRVEAEDVGVYYCSQNTHVPPTFGQGTKVEIE | 25 % of GpH7-B3/GpL16-k0
4 | GpH7-B3 D270N / GpL16-k0 (antibody, human IgG1, B3 variant: anti-glypican-3 IgG1 (constant region B3 = G1d with K439E) with one substitution, EU numbering; also called B3 variant D270N; copies: 2 + 2) heavy: not shown light: DIVMTQSPLSLPVTPGEPASISCQASESLVHSNRNTYLHWYLQKPGQSPQLLIYKVSNRFSGVPDRFSGSGSGTDFTLKISRVEAEDVGVYYCSQNTHVPPTFGQGTKVEIE | 13 % of GpH7-B3/GpL16-k0
5 | GpH7-B3 P271T / GpL16-k0 (antibody, human IgG1, B3 variant: anti-glypican-3 IgG1 (constant region B3 = G1d with K439E) with one substitution, EU numbering; also called B3 variant P271T; copies: 2 + 2) heavy: not shown light: DIVMTQSPLSLPVTPGEPASISCQASESLVHSNRNTYLHWYLQKPGQSPQLLIYKVSNRFSGVPDRFSGSGSGTDFTLKISRVEAEDVGVYYCSQNTHVPPTFGQGTKVEIE | 31 % of GpH7-B3/GpL16-k0
6 | GpH7-B3 Q295F / GpL16-k0 (antibody, human IgG1, B3 variant: anti-glypican-3 IgG1 (constant region B3 = G1d with K439E) with one substitution, EU numbering; also called B3 variant Q295F; copies: 2 + 2) heavy: not shown light: DIVMTQSPLSLPVTPGEPASISCQASESLVHSNRNTYLHWYLQKPGQSPQLLIYKVSNRFSGVPDRFSGSGSGTDFTLKISRVEAEDVGVYYCSQNTHVPPTFGQGTKVEIE | 46 % of GpH7-B3/GpL16-k0
7 | GpH7-B3 S298R / GpL16-k0 (antibody, human IgG1, B3 variant: anti-glypican-3 IgG1 (constant region B3 = G1d with K439E) with one substitution, EU numbering; also called B3 variant S298R; copies: 2 + 2) heavy: not shown light: DIVMTQSPLSLPVTPGEPASISCQASESLVHSNRNTYLHWYLQKPGQSPQLLIYKVSNRFSGVPDRFSGSGSGTDFTLKISRVEAEDVGVYYCSQNTHVPPTFGQGTKVEIE | 20 % of GpH7-B3/GpL16-k0

Further lines, results first:

Row | relative binding activity (amount bound / amount bound by GpH7-B3/GpL16-k0 x100) | Binder
8 | 19 % of GpH7-B3/GpL16-k0 | GpH7-B3 D270V / GpL16-k0 (antibody, human IgG1, B3 variant: anti-glypican-3 IgG1 (constant region B3 = G1d with K439E) with one substitution, EU numbering; also called B3 variant D270V; copies: 2 + 2) heavy: not shown light: DIVMTQSPLSLPVTPGEPASISCQASESLVHSNRNTYLHWYLQKPGQSPQLLIYKVSNRFSGVPDRFSGSGSGTDFTLKISRVEAEDVGVYYCSQNTHVPPTFGQGTKVEIE
9 | 52 % of GpH7-B3/GpL16-k0 | GpH7-B3 Q295H / GpL16-k0 (antibody, human IgG1, B3 variant: anti-glypican-3 IgG1 (constant region B3 = G1d with K439E) with one substitution, EU numbering; also called B3 variant Q295H; copies: 2 + 2) heavy: not shown light: DIVMTQSPLSLPVTPGEPASISCQASESLVHSNRNTYLHWYLQKPGQSPQLLIYKVSNRFSGVPDRFSGSGSGTDFTLKISRVEAEDVGVYYCSQNTHVPPTFGQGTKVEIE
10 | 55 % of GpH7-B3/GpL16-k0 | GpH7-B3 Q295G / GpL16-k0 (antibody, human IgG1, B3 variant: anti-glypican-3 IgG1 (constant region B3 = G1d with K439E) with one substitution, EU numbering; also called B3 variant Q295G; copies: 2 + 2) heavy: not shown light: DIVMTQSPLSLPVTPGEPASISCQASESLVHSNRNTYLHWYLQKPGQSPQLLIYKVSNRFSGVPDRFSGSGSGTDFTLKISRVEAEDVGVYYCSQNTHVPPTFGQGTKVEIE
11 | 49 % of GpH7-B3/GpL16-k0 | GpH7-B3 D270Q / GpL16-k0 (antibody, human IgG1, B3 variant: anti-glypican-3 IgG1 (constant region B3 = G1d with K439E) with one substitution, EU numbering; also called B3 variant D270Q; copies: 2 + 2) heavy: not shown light: DIVMTQSPLSLPVTPGEPASISCQASESLVHSNRNTYLHWYLQKPGQSPQLLIYKVSNRFSGVPDRFSGSGSGTDFTLKISRVEAEDVGVYYCSQNTHVPPTFGQGTKVEIE
12 | 68 % of GpH7-B3/GpL16-k0 | GpH7-B3 Q295N / GpL16-k0 (antibody, human IgG1, B3 variant: anti-glypican-3 IgG1 (constant region B3 = G1d with K439E) with one substitution, EU numbering; also called B3 variant Q295N; copies: 2 + 2) heavy: not shown light: DIVMTQSPLSLPVTPGEPASISCQASESLVHSNRNTYLHWYLQKPGQSPQLLIYKVSNRFSGVPDRFSGSGSGTDFTLKISRVEAEDVGVYYCSQNTHVPPTFGQGTKVEIE
13 | 52 % of GpH7-B3/GpL16-k0 | GpH7-B3 Q295R / GpL16-k0 (antibody, human IgG1, B3 variant: anti-glypican-3 IgG1 (constant region B3 = G1d with K439E) with one substitution, EU numbering; also called B3 variant Q295R; copies: 2 + 2) heavy: not shown light: DIVMTQSPLSLPVTPGEPASISCQASESLVHSNRNTYLHWYLQKPGQSPQLLIYKVSNRFSGVPDRFSGSGSGTDFTLKISRVEAEDVGVYYCSQNTHVPPTFGQGTKVEIE
14 | 0 % of GpH7-B3/GpL16-k0 | GpH7-B3 S298P / GpL16-k0 (antibody, human IgG1, B3 variant: anti-glypican-3 IgG1 (constant region B3 = G1d with K439E) with one substitution, EU numbering; also called B3 variant S298P; copies: 2 + 2) heavy: not shown light: DIVMTQSPLSLPVTPGEPASISCQASESLVHSNRNTYLHWYLQKPGQSPQLLIYKVSNRFSGVPDRFSGSGSGTDFTLKISRVEAEDVGVYYCSQNTHVPPTFGQGTKVEIE
15 | 64 % of GpH7-B3/GpL16-k0 | GpH7-B3 Q295D / GpL16-k0 (antibody, human IgG1, B3 variant: anti-glypican-3 IgG1 (constant region B3 = G1d with K439E) with one substitution, EU numbering; also called B3 variant Q295D; copies: 2 + 2) heavy: not shown light: DIVMTQSPLSLPVTPGEPASISCQASESLVHSNRNTYLHWYLQKPGQSPQLLIYKVSNRFSGVPDRFSGSGSGTDFTLKISRVEAEDVGVYYCSQNTHVPPTFGQGTKVEIE
16 | 49 % of GpH7-B3/GpL16-k0 | GpH7-B3 Q295Y / GpL16-k0 (antibody, human IgG1, B3 variant: anti-glypican-3 IgG1 (constant region B3 = G1d with K439E) with one substitution, EU numbering; also called B3 variant Q295Y; copies: 2 + 2) heavy: not shown light: DIVMTQSPLSLPVTPGEPASISCQASESLVHSNRNTYLHWYLQKPGQSPQLLIYKVSNRFSGVPDRFSGSGSGTDFTLKISRVEAEDVGVYYCSQNTHVPPTFGQGTKVEIE
